Like-named read-outs stand apart in the source and are kept apart here.
Tests used:
SUDc5b [1] = molecular target: T1, SUDc5b (SARS coronavirus TOR2, UniProt P0C6U8 1207-1380); assay: zone-interference gel electrophoresis
SUDc5b [2] = molecular target: T1, SUDc5b; assay: EMSA
SUD full-length (Nsp3c) [3] = molecular target: T2, SUD full-length (Nsp3c) (SARS coronavirus TOR2, UniProt P0C6U8 1167-1544); assay: EMSA
SUD full-length (Nsp3c) [4] = molecular target: T2, SUD full-length (Nsp3c); assay: EMSA; remark: listed apart in the source
SUDc5b [5] = molecular target: T1, SUDc5b; assay: EMSA; remark: listed apart in the source

Q: With CATCTATGAGGGGGGTTTACTATC (ssDNA) [2(+)] as the binder, how does the Kd (SUDc5b [1]) read?
A: Its Kd is roughly 1000 nM.

Q: Does GGGUGACACUAAAAAAAAAAAAAACUCUCCUCUCGGUGCUCCUUCACUC (ssRNA) [bbc3-A14 RNA] bind (SUDc5b [2])?
A: Result: no binding

Q: Does GGGUGACACUAAAAAAAAAAAAAACUCUCCUCUCGGUGCUCCUUCACUC (ssRNA) [bbc3-A14 RNA] bind (SUD full-length (Nsp3c) [3])?
A: Result: no binding

Q: For ATGTAATGCGGGGGGCACTACGTT (ssDNA) [3(-)], which Kd (SUDc5b [1]) is on record?
A: The Kd was roughly 1000 nM.

Q: What does the source list for GGGUGACACUGGGGGGGGGGGGGGCUCUCCUCUCGGUGCUCCUUCACUC (ssRNA) [bbc3-G14 RNA]?
A: binding result (SUD full-length (Nsp3c) [4]): binds; binding result (SUDc5b [5]): binds

Reference: article PMC7092865
